From PMC6378967
pKd: −log10 of the molar value.

How the values were obtained:
WT human renin (human) [1] = biological target: WT human renin (human) (UniProt P00797)
[2] = biological target: biotinylated renin D226A mutant (human); test: BLI; FortéBio Octet Red96; biotinylated renin D226A (2.5 μg/ml) loaded on streptavidin biosensors; 2-fold dilutions of AGT in 10 mM Tris, pH 7.4, 0.15 M NaCl, 1% BSA; 1:1 binding model, global fit; KD = koff/kon; three independent assays
WT human renin (human) [3] = biological target: WT human renin (human) (UniProt P00797); remark: listed apart in the source

Sequence of WT human renin (human) (P00797 67-406): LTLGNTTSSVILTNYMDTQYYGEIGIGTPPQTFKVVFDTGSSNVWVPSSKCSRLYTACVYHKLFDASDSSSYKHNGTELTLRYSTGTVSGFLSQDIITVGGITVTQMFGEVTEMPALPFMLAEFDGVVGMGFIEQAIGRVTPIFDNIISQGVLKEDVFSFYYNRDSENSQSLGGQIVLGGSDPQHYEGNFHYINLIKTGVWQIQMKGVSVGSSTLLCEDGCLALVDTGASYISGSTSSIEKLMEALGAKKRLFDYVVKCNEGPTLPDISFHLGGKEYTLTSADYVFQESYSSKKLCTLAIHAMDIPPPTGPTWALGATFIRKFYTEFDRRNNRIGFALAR

Substance: fully glycosylated WT human angiotensinogen (AGT) (natural protein)
- Km of cleavage of AGT by WT human renin (released Ang I quantified by immunoassay) (WT human renin (human) [1]): 0.76 µM
- kcat of cleavage of AGT by WT human renin (released Ang I quantified by immunoassay) (WT human renin (human) [1]): 0.2 s⁻¹
- kcat/Km of cleavage of AGT by WT human renin (released Ang I quantified by immunoassay) (WT human renin (human) [1]): 250000 M⁻¹ s⁻¹

Substance: human AGT N14Q variant (natural protein)
- Km of cleavage of AGT by WT human renin (released Ang I quantified by immunoassay) (WT human renin (human) [1]): 0.56 µM
- kcat of cleavage of AGT by WT human renin (released Ang I quantified by immunoassay) (WT human renin (human) [1]): 0.35 s⁻¹
- kcat/Km of cleavage of AGT by WT human renin (released Ang I quantified by immunoassay) (WT human renin (human) [1]): 640000 M⁻¹ s⁻¹
- pKd [2]: 8.24
- koff [2]: 0.000209 s⁻¹
- kon [2]: 36100 M⁻¹ s⁻¹

Substance: human AGT N331D (natural protein)
- Km of cleavage of AGT by WT human renin (released Ang I quantified by immunoassay) (WT human renin (human) [1]): 2.56 µM
- kcat of cleavage of AGT by WT human renin (released Ang I quantified by immunoassay) (WT human renin (human) [1]): 0.14 s⁻¹
- kcat/Km of cleavage of AGT by WT human renin (released Ang I quantified by immunoassay) (WT human renin (human) [1]): 50000 M⁻¹ s⁻¹
- pKd [2]: 7.04
- koff [2]: 0.000296 s⁻¹
- kon [2]: 3210 M⁻¹ s⁻¹

Substance: human AGT N334T (natural protein)
- Km of cleavage of AGT by WT human renin (released Ang I quantified by immunoassay) (WT human renin (human) [1]): 0.76 µM
- kcat of cleavage of AGT by WT human renin (released Ang I quantified by immunoassay) (WT human renin (human) [1]): 0.16 s⁻¹
- kcat/Km of cleavage of AGT by WT human renin (released Ang I quantified by immunoassay) (WT human renin (human) [1]): 220000 M⁻¹ s⁻¹
- pKd [2]: 7.55
- koff [2]: 0.000418 s⁻¹
- kon [2]: 15000 M⁻¹ s⁻¹

Substance: human AGT R83H (natural protein)
- Km of cleavage of AGT by WT human renin (released Ang I quantified by immunoassay) (WT human renin (human) [1]): 1.42 µM
- kcat of cleavage of AGT by WT human renin (released Ang I quantified by immunoassay) (WT human renin (human) [1]): 0.2 s⁻¹
- kcat/Km of cleavage of AGT by WT human renin (released Ang I quantified by immunoassay) (WT human renin (human) [1]): 140000 M⁻¹ s⁻¹
- pKd [2]: 7.35
- koff [2]: 0.000606 s⁻¹
- kon [2]: 14000 M⁻¹ s⁻¹

Substance: human AGT quadruple glycosylation mutant N14Q/N137Q/N271Q/N295Q (natural protein)
- Km of cleavage of AGT by WT human renin (released Ang I quantified by immunoassay) (WT human renin (human) [1]): 0.67 µM
- kcat of cleavage of AGT by WT human renin (released Ang I quantified by immunoassay) (WT human renin (human) [1]): 0.44 s⁻¹
- kcat/Km of cleavage of AGT by WT human renin (released Ang I quantified by immunoassay) (WT human renin (human) [1]): 650000 M⁻¹ s⁻¹
- pKd [2]: 8.92
- koff [2]: 8.61e-05 s⁻¹
- kon [2]: 74600 M⁻¹ s⁻¹

Substance: spent AGT (human AGT without the N-terminal 10-residue angiotensin I peptide) (domain or fragment)
- inhibition of renin cleavage of an AGT fusion protein (intact AGT 1.1 μM) by increasing amounts of spent AGT (product inhibition; blocks renin with intact AGT) (WT human renin (human) [3]): 0.65 µM
